Test results: article PMC12586598 (2025)
Blank lines part the entries; values can stand above or below the binder they belong to.

Key:
Test in all cases: SPR
[1] = biological target: long-acting C5a-blocking cyclic peptide drug Cp1 (head-tail cyclization of the linear peptide K1)
K4 = biological target: K4
K3 = biological target: K3
K2 = biological target: K2
linear peptide K1 = biological target: linear peptide K1

- Kd [1]: 0.712 µM
- koff [1]: 0.0745 s⁻¹
B1: mouse C5 (natural protein)
chain 1: QEQTYVISAPKILRVGSSENVVIQVHGYTEAFDATLSLKSYPDKKVTFSSGYVNLSPENKFQNAALLTLQPNQVPREESPVSHVYLEVVSKHFSKSKKIPITYNNGILFIHTDKPVYTPDQSVKIRVYSLGDDLKPAKRETVLTFIDPEGSEVDIVEENDYTGIISFPDFKIPSNPKYGVWTIKANYKKDFTTTGTAYFEIKEYVLPRFSVSIELERTFIGYKNFKNFEITVKARYFYNKVVPDAEVYAFFGLREDIKDEEKQMMHKATQAAKLVDGVAQISFDSETAVKELSYNSLEDLNNKYLYIAVTVTESSGGFSEEAEIPGVKYVLSPYTLNLVATPLFVKPGIPFSIKAQVKDSLEQAVGGVPVTLMAQTVDVNQETSDLETKRSITHDTDGVAVFVLNLPSNVTVLKFEIRTDDPELPEENQASKEYEAVAYSSLSQSYIYIAWTENYKPMLVGEYLNIMVTPKSPYIDKITHYNYLILSKGKIVQYGTREKLFSSTYQNINIPVTQNMVPSARLLVYYIVTGEQTAELVADAVWINIEEKCGNQLQVHLSPDEYVYSPGQTVSLDMVTEADSWVALSAVDRAVYKVQGNAKRAMQRVFQALDEKSDLGCGAGGGHDNADVFHLAGLTFLTNANADDSHYRDDSCKEIL
chain 2: NLHLLRQKIEEQAAKYKHSVPKKCCYDGARVNFYETCEERVARVTIGPLCIRAFNECCTIANKIRKESPHKPVQLGRIHIKTLLPVMKADIRSYFPESWLWEIHRVPKRKQLQVTLPDSLTTWEIQGIGISDNGICVADTLKAKVFKEVFLEMNIPYSVVRGEQIQLKGTVYNYMTSGTKFCVKMSAVEGICTSGSSAASLHTSRPSRCVFQRIEGSSSHLVTFTLLPLEIGLHSINFSLETSFGKDILVKTLRVVPEGVKRESYAGVILDPKGIRGIVNRRKEFPYRIPLDLVPKTKVERILSVKGLLVGEFLSTVLSKEGINILTHLPKGSAEAELMSIAPVFYVFHYLEAGNHWNIFYPDTLSKRQSLEKKIKQGVVSVMSYRNADYSYSMWKGASASTWLTAFALRVLGQVAKYVKQDENSICNSLLWLVEKCQLENGSFKENSQYLPIKLQGTLPAEAQEKTLYLTAFSVIGIRKAVDICPTMKIHTALDKADSFLLENTLPSKSTFTLAIVAYALSLGDRTHPRFRLIVSALRKEAFVKGDPPIYRYWRDTLKRPDSSVPSSGTAGMVETTAYALLASLKLKDMNYANPIIKWLSEEQRYGGGFYSTQDTINAIEGLTEYSLLLKQIHLDMDINVAYKHEGDFHKYKVTEKHFLGRPVEVSLNDDLVVSTGYSSGLATVYVKTVVHKISVSEEFCSFYLKIDTQDIEASSHFRLSDSGFKRIIACASYKPSKEESTSGSSHAVMDISLPTGIGANEEDLRALVEGVDQLLTDYQIKDGHVILQLNSIPSRDFLCVRFRIFELFQVGFLNPATFTVYEYHRPDKQCTMIYSISDTRLQKVCEGAACTCVEADCAQLQAEVDLAISADSRKEKACKPETAYAYKVRITSATEENVFVKYTATLLVTYKTGEAADENSEVTFIKKMSCTNANLVKGKQYLIMGKEVLQIKHNFSFKYIYPLDSSTWIEYWPTDTTCPSCQAFVENLNNFAEDLFLNSCE

- Kd [1]: 7.41 µM
- koff [1]: 0.395 s⁻¹
B2: human C5a protein (ligand)
chain: TLQKKIEEIAAKYKHSVVKKCCYDGACVNNDETCEQRAARISLGPRCIKAFTECCVVASQLRANISHKDMQLGR

- Kd (K4): 2.38 µM
- koff (K4): 0.0299 s⁻¹
- Kd (K3): 7.12 µM
- koff (K3): 0.392 s⁻¹
- Kd (K2): 53.6 µM
- koff (K2): 0.00405 s⁻¹
- Kd (linear peptide K1): 2.85 µM
- koff (linear peptide K1): 0.00586 s⁻¹
- Kd [1]: 5.63 µM
B3: mouse C5a protein (ligand)
chain: NLHLLRQKIEEQAAKYKHSVPKKCCYDGARVNFYETCEERVARVTIGPLCIRAFNECCTIANKIRKESPHKPVQLGR

- Kd [1]: 3.58 µM
B4: mouse C5a-desArg (ligand)
chain: B3 chain
